From article doi:10.1101/2025.06.24.661301, “Homodimerized Arpins: Binding to Arp2/3 Complexes with Positive Synergy to Inhibit Lamellipodia-Dependent Tumor Metastasis” (bioRxiv, 2025)
No end group written: not given here.

Target: Arp2/3 complex (human, UniProt P61158 1-418; P61160 1-394; O15143 1-372)
Assay: SPR; Biacore 8K, 25°C, PBS with 0.05% Tween-20; Arp2/3 immobilised on CM5 chip; analytes injected at 30 μL/min, 60 s association, 60 s dissociation; Arpin^FM 3.125-200 μM, ArpinCT, GST-aCT and D-aCT 0.625-40 μM, AI-designed variants 0.156-10 μM
Settings: both partners purified

B1: D-aCT (dual-tailed peptide of two Arpin CTs linked at their N-termini by BM(PEG)3) (peptide)
chain: CSSGGSSGGSSGGSSGGGASWTDNIMAQKSSKGAAAEIREQGDGAEDEEWDD
modifications: not fully specified (residue 1); also: dimer: N-terminal Cys linked to N-terminal Cys of second chain by BM(PEG)3
- Kd: 5.5 µM
